Laboratory results: article PMC9727766 (bioRxiv, 2022)

Key:
[1] = molecular target: SARS-CoV-2 S protein, C-terminally truncated, Omicron BA.1, on 293T cells (SARS-CoV-2 Omicron BA.1 (B.1.1.529), …, strain); experiment: flow cytometry on cells
[2] = molecular target: SARS-CoV-2 S protein, C-terminally truncated, Omicron BA.4/BA.5, on 293T cells (SARS-CoV-2 Omicron BA.4/BA.5, strain); experiment: flow cytometry on cells

B1: fp.006 monoclonal antibody (IgG) (antibody, V domains shown)
VH: EVQLVESGGGVVQPGGSLRLSCAASGFNFNNYALHWVRQAPGKGLEWVAIISYEARNKKYGVSVMGRFSISRDNSKSIMYLEMNSLRVEDTGVYYCARDLFLSDYDRSGYDPTRGGFDHWGQGTLVTVSS
VL: EIVMTQSPATLSVSPGERATLSCRASQSVSSSLAWYQHRFGQAPRLLISGASTRATGIPGRFSGSGSGTEFTLTISSLQSEDVAVYYCQQYGDWPLVTFGGGTKVEIK
- fold increase of binding with soluble ACE2 [1]: 5.3 fold
- fold increase of binding with soluble ACE2 [2]: 8.2 fold
